In US10500174B2, “Pharmaceutical composition for preventing or treating degenerative brain disease” (SOONCHUNHYANG UNIVERSITY INDUSTRY ACADEMY COOPERATION …, priority 2016, dated 2019):

Assays:
[1] = Plasma stability test (HPLC); assay type: in vitro ADME; details: human plasma, 37° C.
Protocol: In order to evaluate plasma stability, a homogeneous solution of Compound 8 ([…]) was prepared. An aliquot thereof was injected into the plasma (human, Sigma, USA) so as to reach a final concentration of 50 μg/ml, followed by vortexing and culturing at 37° C. for 0, 3, 6, 9, 12, 15, 18, 21 and 24 hr. The plasma solution (200 μl) was then mixed with 1 ml of MeOH to prevent hydrolysis of Compound 8. This solution was added with biotin (internal standard) in distilled water (100 μl, 5 μg/ml) and centrifuged at 2000 rpm for 10 min. The supernatant was collected and dried in air. The residue was dissolved in distilled water (2 ml) and centrifuged at 2000 rpm for 10 min. The supernatant thus obtained was analyzed using HPLC through the following method.
10 μl of the clean supernatant obtained through the above method was introduced into the HPLC system. The UV detector was set at 260 nm and the flow rate was 1.0 ml/min for a running time of 10 to 15 min. The isocratic mobile phase system consisted of MeOH/H2O (30/70), and the column oven was maintained at 37° C. using a C18-column (Agilent, ZORBAX, 4.6×250 mm, 5 μm).
HPLC chromatograms were obtained at each interval, and the remaining amount of Compound 8 was calculated and expressed as a percentage by subtracting the concentration of ibuprofen, released based on the area under the curve, from the sum of the initial concentration of Compound 8 and the internal standard.

[2] = system: HeLa cells; assay: Evaluation of cellular uptake of ibuprofen conjugate (confocal fluorescence); assay type: cell-based; details: 10 μM, 37° C., 30 min, confocal laser scanning microscope
Protocol: HeLa cells were cultured at 37° C. in wet air containing 5% CO2 in a DMEM (high-glucose Dulbecco's Modified Eagle's Medium) containing penicillin-added 10% (v/v) FBS (fetal bovine serum). Subculturing was performed every 2 to 3 days until the cells became subconfluent.
HeLa cells (1×10^5 cells per well) were seeded on a 35 mm coverglass dish (SPL Ltd., Korea) and cultured for 24 hr, after which the medium was removed, and the HeLa cells were washed with cold PBS (×1) (Dulbecco's phosphate buffered saline, pH 7.4). The resulting cells were cultured at 37° C. for 30 min in 3 ml of DMEM containing 10 μM Compound 8 or 10 μM Compound 9, after which the medium was removed, and the HeLa cells were washed five times with cold PBS. The intracellular internalization and intracellular localization of the compound were investigated through fluorescence, achieved using fluorescein, using a confocal laser scanning microscope (Olympus Fluoview FV1000, N.A. 1.30, 40×, planApo, oil immersion lens). The fluorescence of FITC was analyzed at an excitation wavelength of 488 nm and an emission wavelength of 500 to 530 nm, and all experiments were performed three times.

[3] = In-vivo distribution in mouse tissue (fluorescence imaging of tissue flakes); details: 94.6 mg kg^−1 intraperitoneal, after 20 min
Protocol: After 20 min, the mice administered with the above solution were perfused with PBS (pH 7.4) containing paraformaldehyde (4%), and the main organs (brain, heart, lungs, kidneys, spleen and liver) thereof were cultured overnight in PBS (phosphate buffered saline) containing sucrose (0.5 M). A cryoprotectant was added thereto and the above tissue was cut into 15 μm flakes using a cryostat, transferred to a coated slide glass and then dried. Each flake was washed with PBS, treated with Triton X-100 (0.3%) at room temperature for 15 min, and analyzed using an Axioplan2 fluorescence imaging microscope. As a control, deionized water (500 μl) was injected into other mice, and the same procedures as above were performed, after which the compound represented by green fluorescence of FITC in each tissue was compared with autofluorescence of the control.

Row | Compound | hydrolysis relative to the initial time (0 hr) ([1]; 50 μg/ml, after culture for 3 hr) | decrease of the amount remaining ([1]; 50 μg/ml, next culture time of 21 hr (3 to 24 hr)) | half-life and stability in the plasma (in words) ([1]; up to 24 hr) | cellular uptake / intracellular FITC fluorescence [2] | distribution in brain (green fluorescence of FITC) [3]
1 | CC(C)Cc1ccc(C(C)C(=O)NCC(=O)OC[C@H](OC(=O)CCCCCN(CCCNC(=N)N)CCCNC(=N)N)[C@@H](OC(=O)CCCCCN(CCCNC(=N)N)CCCNC(=N)N)[C@H](OC(=O)CCCCCN(CCCNC(=N)N)CCCNC(=N)N)[C@@H](COC(=O)CCCCCNC(=S)Nc2ccc3c(c2)C(=O)OC32c3ccc(O)cc3Oc3cc(O)ccc32)OC(=O)CCCCCN(CCCNC(=N)N)CCCNC(=N)N)cc1.Cl.Cl.Cl.Cl.Cl.Cl.Cl.Cl (stereo partly drawn) [Compound 8, 1-O-(2-aminoacetoxy-ibuprofen)-2,3,4,5-tetra-O—[N-{bis-(3-guanidinopropyl)}-6-aminohexanoyl]-6-O-[6-(fluoresceinyl-5-thioureido)-hexanoyl]-D-sorbitol 8HCl] | about 5% | ~8% | long half-life and considerable stability | strong green fluorescence that is predominant in the cytoplasm | 
2 | fluoresceinyl (S)-2-(2-(4-isobutylphenyl)propanamido)-acetate [Compound 9] |  |  |  | did not show fluorescence in the cells | not distributed in the brain
